In US20240052037A1 (BEIJING HANMI PHARMACEUTICAL, published 2024):

Molecular target: T1, CD47 on cells (HCC827 tumor cells; red blood cells from healthy people) (human, UniProt Q08722 19-323)
T1 construct: whole, on cells; Endogenous CD47 on human cells
Experiment: flow cytometry on mixed HCC827 cells and red blood cells
Procedure: HCC827 tumor cells express PD-L1 and CD47, but red blood cells (RBCs) express only CD47. HCC827 cells and RBCs were mixed together, and flow cytometry (FCM) was used to detect whether the heterodimer was selective for the binding to the two cells in the mixed cells.
The specific implementation process of this method is as follows. […] Flow tubes were incubated on ice for 30 minutes. The cells were washed twice with PBS containing 2% FBS. Then the pellets were resuspended in 200 μL of cold PBS containing 2% FBS and FITC-labeled anti-human IgG antibody diluted 1:1000 (Beijing Zhongshan Golden Bridge, Catalog number ZF0306), incubated on ice for 30 minutes in the dark. The cells were washed twice with PBS containing 2% FBS, then resuspended in 500 μL of cold PBS. The cell suspension obtained was detected and analyzed on a flow cytometer (BD, FACS Calibur), and the respective fluorescence intensities of the two cells in the mixed cells were read.

T1 sequence (Q08722 19-323): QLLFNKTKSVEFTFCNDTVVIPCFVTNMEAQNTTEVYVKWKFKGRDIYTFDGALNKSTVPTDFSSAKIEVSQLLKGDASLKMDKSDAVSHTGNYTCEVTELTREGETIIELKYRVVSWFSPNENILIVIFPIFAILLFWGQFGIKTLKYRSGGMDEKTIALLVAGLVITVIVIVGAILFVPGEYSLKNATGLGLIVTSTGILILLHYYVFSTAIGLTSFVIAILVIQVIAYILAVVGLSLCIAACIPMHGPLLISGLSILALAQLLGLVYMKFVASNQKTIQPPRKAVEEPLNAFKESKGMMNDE

B1: CD47 monoclonal antibody (heavy and light chain variable region sequences of the humanized sequences z11 of the antibody CD47-18-5 and the constant region … (antibody, V domains shown)
VH: QVQLVQSGAEVKKPGSSVKVSCKASGFNIEDIYMHWVRQAPGQGLEWMGRIDPANDNTKYGPKLQGRVTITADTSTNTAYMELSSLRSEDTAVYYCVRRIPTDIMDYWGQGTTVTVSS
VL: DIQMTQSPSSLSASVGDRVTITCKASQNVRTSIAWYQQKPGKAPKTLIYLASNRHTGVPSRFSGSGSGTEFTLTISNLQPEDFATYYCLQHWNYPFTFGQGTKLEIK
notes: also called anti-CD47 monoclonal antibody
- binding result: binds
